Test results: the DeepSol protein solubility set

Assay: soluble on expression in E. coli; label from the status in PepcDB or PDB records

Sequence | soluble on expression in E. coli
SAQAQRVQDAIQHWESHHPKEVAARSTRLAELKQALAEQGAVVRTLQPKVTTTSPQAMLKQAMPALQKMETYACTDGLTFVGKHSSHRRQVEERLDSFGGSQSRKAANKQANDMSNMAAIAAKRGNVSLNQLKSIAACVAQAQAGCCTTFAYSAAAELMKHNQDNQQRIEVVAHRGAKGHSQTHCFVVVGRDPNSELSKPETWGKQAHVIDPWAATIGGRLQGTPSNPPIANLWPPTESV | not soluble
MTINEPLLSPLEQVVRNIEQVIVGKRNVIVLSLTALLAKGHVLLEDVPGVGKTMLVRALAKSFSAELKRIQFTPDLLPSDVIGVSVYNPKTQQFEYKPGPIVAHIVLADEINRTSPKTQSALLEAMEEGSVTVDGVTRALPQPFFVMATQNPIEYEGTYPLPEAQLDRFLLKLHMRYPSPDEEIEMLNRLEKTAPLAEIGPVMSLDELLALQRKVADVHVSDTVKRYIVDLIQQSRQHEAVYLGVSPRGSVALMKAAQAYAFIHGRDFVIPDDVQQLAPYVLAHRLLVRPEAKWDKFDAETIIGQLIARTPVPVPGRR | not soluble
DAFTDQKIRQRYADLPGELHIIELEKDKNGLGLSLAGNKDRSRMSIFVVGINPEGPAAADGRMRIGDELLEINNQILYGRSHQNASAIIKTAPSKVKLVFIRNEDAVNQMA | soluble
MLNTHSCIFHRGVNGSEPLLPVVNGVNICGNPRIISCCLLPLVNPCKPMSTGFDFVAIKKSRTFTAIEIRHKNMRKMAEQQIRCAKC | not soluble
MEANMKKVIGAATATVFGLGAFTTTATAETIVTADVLNVREKPTTESKVVEKVKNGQELKVINTEDGWSKIELNGKEVFVSSEFTKDVYHVTANLLNVRTEANTDSEILGRLKKDDVIESTHQVKDGWLQFEYKGKTAYANVSFLSSTAPTEKKTEEKTKQVAKVQKSVKEKKEVKTQKVAKAKETTKAQEIVKPKEEAKVVKVKEEEKAQEIVKPKEEAKIKEEVKVKEEVKVKEEEKAQEIAKAKEEAKIKEEVKVKEEEKAQEIVKAKEEVKAKEEEKAQEIVKAKEEVKVKEEVKAKEIAKAKEEEKAREIAKAKEEEKAKEIAKAKEEEKAREIAKAKEEEKAREIAKAKEEEKAREIAKAKEEEKAREIAKAKEEERAKEASKNNIQSAKRELTVVATAYTADPSENGTYGGRVLTAMGHDLTANPNMRIIAVDPKVIPLGSKVWVEGYGEAIAGDTGSAIKGNRIDVLMGSKSKAMNWGRQTVKVKILLEHHHHHH | not soluble
SIKDVHRCFVIACIPGKKPYTLALSDFISATAACFKSGIPLKTLKESLENMKETYFRPLKVEEFELLRTWLTLVYKTLKEVLFPLTENKRGICDTDDSIYDEFVKSIVTAIREGYSMEKIRLEQVVTNTKTQPRTEFESALLSQSTRIVVQTVQIAKEFSSEQ | soluble
MGSDKIHHHHHHMSSPLLTMRGIRKSYAGVHALVDGNLDLERGQIHALCGGNGAGKSTILGILMGFTRPDCGEIRIEGKPVSFANPTQALQAGIAIVQQELSGVPHLTVAENIYLGAEPRRRGFVDFPQLNRQAEELLASLGFDIDPRVPLASLSIASQQLIEIAKALSRRDADILIFDEPTSAIGEKDTLRLFEVLRDLAAAGKGIIYVTHRLAEVFTIADSYTVFKDGARIETGRVADITREKLIESMIGGAIEGEYVKENVPSDRPLLDVRGLSRAPWFDRVSFTLHAGEILGIYGLVGSGRSQLLDTIYGLYPADAGTVWVEGREIRPGRVRAALGAGISYVTEDRKHSGLVLCASVGDNLSLSQLPHIQRFGFIRTALERAGIDDSIAKMRIKTPGPEQIVRNLSGGNQQKVVFGRCTSIGPKVLLLDEPTRGVDVGAKKEIYRFVSDFTKAGGAVLMVSSELDEITGMSDRIIVIKKGAHVAEFPREETTQKALMMAAV | not soluble
MATPVPLVFNAPKRGMPPTHFADLNDEARIEALKELGLPKFRLNQIARHYYGRLEADPLTMTDLPEGARQEVKDALFPTLMSPLRVVETDDDTTQKTLWKLHDGTLLESVLMRYSDRSTLCISSQAGCGMACPFCATGQGGLDRNLSIGEIVDQVRNAAATMQSEGGRLSNIVFMGMGEPLANYKRVVSAVRQITQPSPAGFGISQRSVTVSTVGLAPAIRKLADEEMSVTLAVSLHTPDDELRDTLVPVNNRWPVAEVLDAARYYADKSGRRVSIEYALIRDVNDQDWRADMLGEKLHKALGSRVHVNLIPLNPTPGSKWDAAPKARQDEFVRRVIAKGVPCTVRDTKGQEIAAACGQLAAEESA | not soluble
MAYDGLFTKKMVESLQFLTTGRVHKINQPDNDTILMVVRQNRQNHQLLLSIHPNFSRLQLTTKKYDNPFNPPMFARVFRKHLEGGIIESIKQIGNDRRIEIDIKSKDEIGDTIYRTVILEIMGKHSNLILVDENRKIIEGFKHLTPNTNHYRTVMPGFNYEAPPTQHKINPYDITGAEVLKYIDFNAGNIAKQLLNQFEGFSPLITNEIVSRRQFMTSSTLPEAFDEVMAETKLPPTPIFHKNHETGKEDFYFIKLNQFNDDTVTYDSLNDLLDRFYDARGERERVKQ | soluble
MVMVNFVKAGCSRWRCMLAKDTCIFTTFQMVPVSLCCCSYDRCNVGGNPVYSDNPKQIQNGGGNSGNWNSGGNNNGASGGSWGNGNANNNNNNNNGGSNNNGWGNNNDWSSNYNYGGSNAANEPKMTKQTVAGDDSWNKNKWTNKQVEDMFKKSIDDRGDEIQLEDDFKKIDKNYKTQSVPQESLRTLSARKEVEKIPFVAGKSSGVGAKTTASPTTGKSKEIQL | not soluble
MGSDKIHHHHHHQPAAGISDDMVKIGMLLDMSGLYADVTGRGSATAAQMAIDDFGGKVLGKKIELVVVDHQNKADIAANKAREWFDTGHVDAILDVAASAPALAVLDVAKQKNHIVVFSGPGSERITNDLCTPVSVHYAYDTYALANTTARAMVQRGGKTWFFLTADYAFGHTLQDSATAVINEAGGKVLGAARHPIGASDFASYLLQAQASKAQVVGLANAGGDTVNAIKAASEFGLTRNGAQRMAGLLLYINDIHAIGLKTASGLVLTEAFYWDMNDATRAWSRRYFEKVKKMPNMSQAGAYSSVMHYLKAVQAAGTDETAAVMKKMKSMPINDFFAKNGRIREDGRMIHDMYLFEVKSPAESKYPWDYYKVLATVPGDQAFMPASKSQCPLLKR | not soluble
MASVALALWERVLANVVPRQSIAVIGAGVSGLSAAWLLSHRHDVTLYEADNRLGGHANTIIAEGVAVDTGFIVYNEPNYPNLTALFRHIGVETTETDMSFGVSLDGGALEYSSTKLLAQKRNVANPRFIKMLLDVVRFYREGRNIPADLEQGGLCRLDDYLRRQGFGRAFQEDHLLPQAAAIWSASMRDIREFPAAALLRFFDNHGLMLPIDKRPIWRTVVGGSARYVEKLAAGVSGPILTGRPVKAIHRGPDGVRIEDATGETRAFDHVVIGAHADQALSMLAAPSAEERELLGAFRYSRNRAVLHSDPALMPRRRGAWASWNHVGRRGEDGEGGVTYWMNILQPLGVERPYFLSLNPMQDPAGLMHDQVYEHPLFDGPAMLAQRRLWSLQGRRRTWFCGAYFGSGFHEDGLQAGLAVAEQLGGVRRPWLVPNPSGRIVLDVADQAADRELVALEHHHHHH | not soluble
HHHHHHSEEEAIQIIADPPLPPASFTLRDYVDHSETLQKLVLLGVDLSKIEKHPEAANLLLRLDFEKDIKQMLLFLKDVGIEDNQLGAFLTKNHAIFSEDLENLKTRVAYLHSKNFSKADVAQMVRKAPFLLNFSVERLDNRLGFFQKELELSVKKTRDLVVRLPRLLTGSLEPVKENMKVYRLELGFKHNEIQHMITRIPKMLTANKMKLTETFDFVHNVMSIPHHIIVKFPQVFNTRLFKVKERHLFLTYLGRAQYDPAKPNYISLDKLVSIPDEIFCEEIAKASVQDFEKFLKTL | soluble
